The text below walks through data of patent US20090028881A1.

For assay [1], the target named is CCR5 mutant K171A (human) (UniProt P51681). The assay can be described thus: alanine scanning epitope mapping; wild-type CCR5 defined as 100%.
Assay [2] has as its target CCR5 mutant E172A (human) (UniProt P51681). The description is as above.

B1: <CCR5>Pz03.1C5 (antibody, V domains shown)
VH: QVQLKQSGPGLVRPSQSLSITCTVSGFPLGIFGVHWVRQSPGKGLEWLGVIWKGGNTDYNAAFMSRLRITKDNSKSQVFFRMNSLQTDDTAIYYCAKVNLADAMDYWGQGTSVIVSS
VL: DIQMTQSPASLSASVGETVTITCRASGNIHGYLAWFQQKQGKSPQLLVYNTKTLAEGVPSRFSGSGSGTQFSLKINSLQPEDFGNYYCQHHYDLPRTFGGGTKLEIKR
Turning to B1, the epitope binding (% of wild-type CCR5) in assay [1] and in assay [2] was 20% in each case.
